Assay: yeast display, Sf9 membrane polyspecificity reagent, FACS + sequencing; frameworks hold sequencing errors
Summary of the method: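 Galactose induction of a Saccharomyces cerevisiae BJ5465 synthetic nanobody display library ran 36–48 hours. The cells were then stained for 1 hour at 4 °C with 10% biotinylated, detergent-solubilized Sf9 membrane reagent, pulled down on streptavidin microbeads and FACS-sorted into low and high (top ~1%) gates on expression and reagent-binding fluorescence. Labels for polyreactivity follow the gate of origin.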

QVQLVESGGGLVQAGGSLRLSCAASGLTLPSYVMGCYRQAPGKERELVAAISNSGGSTYYADSVKGRFTISRDTAKNTVYLQMNSLKPEDTAVYYCAAVYGYLLYFLLLPFTRDDYWGQGTQVTVSS
polyreactivity (PSR sort gate): high polyreactivity

QVQLVESGGGLVQAGGSLRLSCAASGLTLRNYAKGWYREAPGKDRELVAAITTGGGRTFYADSVKGRFTISRDKAKNTVYLETNSLNPEDTAVYYCAAERAILSSDKQSLWRFDYWGQGTQVTVSS
polyreactivity (PSR sort gate): low polyreactivity

QVQLVESGGGLVQAGGSLRLSCAASGLTLRNYAMGWYRQAPGKERELVAAITTGGGRTYYADSVKGRFTISRDYAKNTVFLQMKSLKPEDTAVYYCAAEGAILSSDKQSLWRFDYWGQGTQVTVSS
polyreactivity (PSR sort gate): low polyreactivity

QVQLVESGGGLVQAGGSLRLSCAASGLTLRTNSMRLYIQAPGKERELVAAISRSGVRTYYAHSVKGRFTISRDNAKNTVYLQMNSLKPEDTAVYYCNAEFSPYPYDYWGQGTQVTVSS
polyreactivity (PSR sort gate): high polyreactivity

QVQLVESGGGLVQAGGSLRLSCAASGLTLSGNAMGWYRQAPGKETELVAAITGRGGSTTYADSVKGRFTISRDNAKTTVYLQMNSLKPEDTAVYYCAADHAWYSLFDYWGQGTQVTVSS
polyreactivity (PSR sort gate): low polyreactivity

QVQLVESGGGLVQAGGSLRLSCAASGLTLSYYAMGWYRPAPGKEMELVAAISSGGSTYYADSVKGRFTISRDNAKNTVYLQMNSLKPEDTAVYYCAAQWWRLYWEYYYWGQGTQVTVSS
polyreactivity (PSR sort gate): low polyreactivity

QVQLVESGGGLVQAGGSLRLSCAASGLTLTYYAMGWYRQAPGKERELVAAISSSGGSTYYADSVKGRFTISRDNAKNTVYLQMNSLKPEDTAVYYCAARDWASHTPFDYWGQGTQVTVSS
polyreactivity (PSR sort gate): high polyreactivity

QVQLVESGGGLVQAGGSLRLSCAASGLTMTWNSMGWYRQAPGKERELVAAIRWRGSSTYYADSVKGRFTISRDNAKNTVYLQLNSLKPEDTAVYYCAAEPRYYHVGYEYDNWGQGTQVTVSS
polyreactivity (PSR sort gate): high polyreactivity

QVQLVESGGGLVQAGGSLRLSCAASGLTSIHYMGWYRQAPGKERELVATITSSTGSTYYADSVKGRFTISRDNAKNTVYLQMNSLKPEDTAVYYCAAESFGADGPYQPSYDYWGQGTQVTVSS
polyreactivity (PSR sort gate): low polyreactivity

QVQLVESGGGLVQAGGSLRLSCAASGLTSVYNAMGWYRQAPGKERELVAAISWRGGRTYYADSVKGRFTISRDNAKNTVYLQMNSLKPEDTAVYYCARGYYTRPYYNPVFGYNYWGQGTQVTVSS
polyreactivity (PSR sort gate): high polyreactivity

QVQLVESGGGLVQAGGSLRLSCAASGLTVVIYAMGWYRKAPGKERELVARITCSGGSTYYADSVKGRFTISRDNAKNTVYLQMISLQPEVTAVYYCAARRFYYYNAVYDYWGQGTQVTVSS
polyreactivity (PSR sort gate): low polyreactivity

QVQLVESGGGLVQAGGSLRLSCAASGLTYWAYAMGWYRQAPGKERDFVAAISWSGDSTYYADSVKGRYTISRDNAKNTVYLQMNSLKPEDTAVYYCAAEWYYVYIAPYDYLGQGTQVTVSS
polyreactivity (PSR sort gate): low polyreactivity

QVQLVESGGGLVQAGGSLRLSCAASGMIFTLYAMGWNRQAPGKERELVAGIDASGGSTSYADSVKGRFTISRDNAKNTVYLQMNSLKPEDTAVYYCAARILPYGYDYWGQGTQVTVSS
polyreactivity (PSR sort gate): low polyreactivity

QVQLVESGGGLVQAGGSLRLSCAASGMILGVNVMGWYRQAPGKERELVAAISGGGRTYYADSVKGRFTISRDNAKNTVYLLMNSLKPEDTAVYYCAARVYSLGYGGDYWGQGTHVTVSS
polyreactivity (PSR sort gate): high polyreactivity

QVQLVESGGGLVQAGGSLRLSCAASGNAMGWYRPAPGKERELVAAITRRGGSTYYADSVKGRFTISRDNAKNTVYLQMNSLKPEDSAVYYCAADNPSYNLWYGYWGLGTQVTVSS
polyreactivity (PSR sort gate): low polyreactivity

QVQLVESGGGLVQAGGSLRLSCAASGNIFADYAMGWYRQAPGKERELVAAISRGGITSYADSVKGRFTISRDNAKNTVYLQMNSLKPEDTAVYYCATDRYDVYDSLGFGYWGQGTQVTVSS
polyreactivity (PSR sort gate): low polyreactivity

QVQLVESGGGLVQAGGSLRLSCAASGNIFANYAMGWYRQAPGKERELVAAIRWSASRPYYADSVKGRFTISRDNAKNTVYLQMNSLKPEDTAVYYCAATIYTFWDYYYDYWGQGTQVTVSS
polyreactivity (PSR sort gate): high polyreactivity

QVQLVESGGGLVQAGGSLRLSCAASGNIFARYAMGWYRQAPGKEREMVARISESGGRTYYADSVKARFTISRDNAKNTVYLQMNSLKPEDTAVYYCADRRYIQYGFKFYYWGQGTQLTVSS
polyreactivity (PSR sort gate): high polyreactivity

QVQLVESGGGLVQAGGSLRLSCAASGNIFDSYGMGWYRQAPGKERELVATINTSSGSTYYADSVKGRFTISRDNAKNTVYIQMNSLKPEDTAVYYCAAEWYPYTWGYGYWGQGTQVTVSS
polyreactivity (PSR sort gate): low polyreactivity

QVQLVESGGGLVQAGGSLRLSCAASGNIFDYYAMGWYRQAPGKERELVAAISTGTSTYADSVKGRFTISRDNAKNTVYLQMNSLKPQDTAVYYCAADVGIRPLNYNPYNYWGQGTQVTVSS
polyreactivity (PSR sort gate): low polyreactivity

QVQLVESGGGLVQAGGSLRLSCAASGNIFFGYAMGWYRQAPGKEREYVATITKIGGSTYYADSVKGRFTISRDNAKNTVYLQMNSLKPEDTAVYYCAARLGHSVNPGGERWDVEYWGQGTQVTVSS
polyreactivity (PSR sort gate): low polyreactivity

QVQLVESGGGLVQAGGSLRLSCAASGNIFFRYTMGWYRQAPGKERELVAASSASGGSTYYADSVKGRFTISRDNAKNTVYLQMNSLKPEDTAVYYCAARILHYTSEYYYWGQGTQVTVSA
polyreactivity (PSR sort gate): high polyreactivity

QVQLVESGGGLVQAGGSLRLSCAASGNIFGAYAMGWYRQAPGKERELVATINWSGTRTYADSVKGRFTISRDNAKNTVYLQMNSLKPEDTAVYYCATKIAGRYRTRYYWGQGTQVTVSS
polyreactivity (PSR sort gate): high polyreactivity

QVQLVESGGGLVQAGGSLRLSCAASGNIFGHYTMGGYRQAPGKERELVAAISRTGGRTYYADSVKGRFTISRDNAKKTVYLQMNSLKPEDTAVYYCAADKGGTYFNGDSWGQGTQVTVSS
polyreactivity (PSR sort gate): high polyreactivity

QVQLVESGGGLVQAGGSLRLSCAASGNIFIYNAMGWYREAPGKERELVAVISNSGSTYYADSVKGRFTISRDNAKNTVYLQMHSLKPEDSAVYYCNKDGGGDSYWYDYWGQGTHVTVSS
polyreactivity (PSR sort gate): low polyreactivity

QVQLVESGGGLVQAGGSLRLSCAASGNIFKHYAMGWYRQAPGKERELVAAITWSGGSTHYADSVKGRFTISRDNAKNTVYFQMNSLKPEDTAVSYCAARGWWPGTKWTRYDYWGQGTQVTVSS
polyreactivity (PSR sort gate): high polyreactivity

QVQLVESGGGLVQAGGSLRLSCAASGNIFLFYAMGWYRQAPGKERELVATLSWRGVGTYYADSVKGRFTISRDKAKNTGYIQMNSLKPEDTAVYYCAARGVWPEYDYWGQGTQVTVSS
polyreactivity (PSR sort gate): low polyreactivity

QVQLVESGGGLVQAGGSLRLSCAASGNIFPDYAMGWYRQAPGKERELVAAISWSGGSTYYADSVKGRFTISRDNAKNTVYLQMNSLKPEETAVYYCAAGRRGRSYNRIRYDYWGQGTQVTVSS
polyreactivity (PSR sort gate): high polyreactivity

QVQLVESGGGLVQAGGSLRLSCAASGNIFPYYAMGWYRQAPGKERELVASITWSGGRTYYADSVKGRFTISRDNAKNTVYLQMNSLKPEDTAVYYCAKEHHRTGQGRDYDYWGQGTQVTVSS
polyreactivity (PSR sort gate): low polyreactivity

QVQLVESGGGLVQAGGSLRLSCAASGNIFQRYAMGWYRQAPGKERELVAAISGNGGNTFYADSVKGRFTISRDNAKNSVYLQMNSLKPEDTAVYYCNTVYVVYGYDYWGQGTQVTVSS
polyreactivity (PSR sort gate): high polyreactivity

QVQLVESGGGLVQAGGSLRLSCAASGNIFQRYAMGWYRQAPGKERELVAAISYSGARTYYADSVKGRFTISRDNAKNTVYLQMNSLKPEDTAVYYCATYGGLTKFRLAYDYWGQGTQVTVSS
polyreactivity (PSR sort gate): high polyreactivity

QVQLVESGGGLVQAGGSLRLSCAASGNIFRINGMGWYRQAPGKERELVAAISFSGGSTYYADSVKGRFTISRDNAKNTVYLQMNSLKPEDTAVYYCNADSTKGWYHDYDYWGQGTQVTVSS
polyreactivity (PSR sort gate): low polyreactivity

QVQLVESGGGLVQAGGSLRLSCAASGNIFRRYAMGWYRQAPGKDRELVAAISISGGNTYYADSVKGRFTISRDNAKNTVYLQMNSLKREDTAVYYCNARLRWYPGYDYWGQGTQVTVSS
polyreactivity (PSR sort gate): high polyreactivity

QVQLVESGGGLVQAGGSLRLSCAASGNIFRRYAMGWYRQAPGKERELVAAITWSGGSTYYADSVKGRFTISRDNAKNTVYLQMNSLKPEDTAVYYCAARRFWHYGYPGAYIGFGYWGQGTQVTVSS
polyreactivity (PSR sort gate): high polyreactivity

QVQLVESGGGLVQAGGSLRLSCAASGNIFRSYAMGWYRQAPGKERELVAAISSRGGSTYYADSVKGRFTISRDNAKNTVYLQMNSLKPEDTAVYYCNAPSTQQGPKYDYWGQGTQVTVSS
polyreactivity (PSR sort gate): low polyreactivity

QVQLVESGGGLVQAGGSLRLSCAASGNIFRSYMGWYRQAPGKERELVASISRRGGSTYYADSVKGRFTISRDNAKNTVYLQMNSLKPEDTAVYYCARRWSWVNGVFGYYWGQGTQVTVSS
polyreactivity (PSR sort gate): high polyreactivity

QVQLVESGGGLVQAGGSLRLSCAASGNIFSANAMVWDRQAPGKEREFVAAISSTGGSTYYADSVKGRFTISRDNAKNTVYLQMNSLIPEDTAVYYCAAYIRRYLHYDYWGQGSQVTVSS
polyreactivity (PSR sort gate): high polyreactivity

QVQLVESGGGLVQAGGSLRLSCAASGNIFSAYAMGWYRQAPGTERELVATITSGGITYYADSVKGRFTISRDNAKNSVYLQKNSLKPEDTAVYYCNADHHGQAEYGYWGHGTQVTVSS
polyreactivity (PSR sort gate): low polyreactivity

QVQLVESGGGLVQAGGSLRLSCAASGNIFSAYTMGWYRQAPGKERELVAAITGGTSTHYADSVKGRFTISRDNAKNTVYLQMNSLKPEDTAVYYCAADQGRYGIIGWDDYWGQGTQVTVSS
polyreactivity (PSR sort gate): low polyreactivity

QVQLVESGGGLVQAGGSLRLSCAASGNIFSDYTMGWYRQAPGEERELVAAISGEGGTTYNADSVKGRFTISRDNAKNTVYLQMNRLKPEDPAVYYCAADGYYHAYDQFFIVYYEYDYWGQGTQVTVSS
polyreactivity (PSR sort gate): low polyreactivity

QVQLVESGGGLVQAGGSLRLSCAASGNIFSGNAMGWYRQAPGKERELVAAISWSGGSTYYADSVKGRFTISRDNAKNTVYLQMNSLKPEDTAVYYCNKDLYADGQYNYDYWGQGTQVTVSS
polyreactivity (PSR sort gate): low polyreactivity

QVQLVESGGGLVQAGGSLRLSCAASGNIFSIYAMGWYRQAPGKERELVARITRVGSTYADSVKGRFTISRDNAKNTVYLQMNSLNPEDTAVYYCAADKNTPHASLDDFNDYDYWGQGTQVTVSS
polyreactivity (PSR sort gate): high polyreactivity

QVQLVESGGGLVQAGGSLRLSCAASGNIFSKYAMGWYRQAPGKERELVAAISRSGGRTYYADSVKGRFTISRDNAKNTVYLQMNSLNPEDTAFYYCNKAQRHYPYDYWGQGTQVTVSS
polyreactivity (PSR sort gate): high polyreactivity
